# Reference: article PMC6239281, “Same but different: Comparison of two system-specific molecular chaperones for the maturation of formate dehydrogenases” (PLoS ONE, 2018)
# Assays:
# [1] = biological target: Rhodobacter capsulatus FdsC (R. capsulatus); test: SEC; size exclusion chromatography of the Ni-NTA purified chaperones alone; data not shown
# [2] = biological target: Rhodobacter capsulatus FdsC-C104A/C107A (R. capsulatus); test: as above
# [3] = biological target: Rhodobacter capsulatus FdsC-C104A (R. capsulatus); test: as above
# [4] = biological target: Rhodobacter capsulatus FdsC-C107A (R. capsulatus); test: as above
# [5] = biological target: the molecule itself; test: as above
# [6] = biological target: T1, Escherichia coli L-cysteine desulfurase IscS (E. coli, UniProt P0A6B7 1-404); test: SEC; 20 μM IscS mixed with 40 μM FdhD or FdsC (or double cysteine variant), 30 min at room temperature, Superdex 200 (Increase), 100 mM potassium phosphate pH 8.0 (legend: with 100 mM NaCl, 10 mM β-mercaptoethanol), 280 nm; fractions on 15% SDS-PAGE; conditions: both partners purified
# T1 construct: IscS, L-cysteine desulfurase of Escherichia coli; iscS gene cloned into NcoI/BamHI sites of pET15b (pSL209); also called E. coli IscS; source: recombinant (plasmid pSL209), expressed and purified as described previously [33, 46]
# T1 sequence (P0A6B7 whole entry): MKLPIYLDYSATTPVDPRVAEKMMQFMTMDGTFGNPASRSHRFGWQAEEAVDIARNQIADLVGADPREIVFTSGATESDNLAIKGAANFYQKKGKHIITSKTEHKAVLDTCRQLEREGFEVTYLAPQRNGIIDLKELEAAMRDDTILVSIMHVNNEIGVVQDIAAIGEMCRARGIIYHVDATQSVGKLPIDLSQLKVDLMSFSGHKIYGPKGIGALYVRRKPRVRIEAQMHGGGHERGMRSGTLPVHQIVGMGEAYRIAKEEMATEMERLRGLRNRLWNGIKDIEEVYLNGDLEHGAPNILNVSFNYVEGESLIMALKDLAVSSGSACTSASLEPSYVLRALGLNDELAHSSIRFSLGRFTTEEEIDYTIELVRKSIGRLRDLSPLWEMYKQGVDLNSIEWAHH
molecule,measurement,setting,value
Rhodobacter capsulatus FdsC (natural protein),stoichiometry N,[1],2
Rhodobacter capsulatus FdsC-C104A/C107A (natural protein),stoichiometry N,[2],2
Rhodobacter capsulatus FdsC-C104A (natural protein),stoichiometry N,[3],2
Rhodobacter capsulatus FdsC-C107A (natural protein),stoichiometry N,[4],2
"Escherichia coli FdhD (natural protein, E. coli, FdhD, FDH-specific chaperone of Escherichia coli; fdhD gene in pTrcHis (pNB10); His6-tagged FdhD has a molecular mass of 32.7 kDa; also called FdhD wild-type; FdhD WT; source: E. coli ΔfdhD strain (plasmid pNB10), purified (Ni-NTA)) MKKTQRKEIENVTNITGVRQIELWRRDDLQHPRLDEVAEEVPVALVYNGISHVVMMASPKDLEYFALGFSLSEGIIESPRDIFGMDVVPSCNGLEVQIELSSRRFMGLKERRRALAGRTGCGVCGVEQLNDIGKPVQPLPFTQTFDLNKLDDALRHLNDFQPVGQLTGCTHAAAWMLPSGELVGGHEDVGRHVALDKLLGRRSQEGESWQQGAVLVSSRASYEMVQKSAMCGVEILFAVSAATTLAVEVAERCNLTLVGFCKPGRATVYTHPQRLSN",stoichiometry N,[5],2
same,binding result,[6],binds
"Escherichia coli FdhD-C124A (natural protein, E. coli, FdhD of Escherichia coli with C124A; fdhD^C124A gene in pTrcHis (pNB12); Made from pNB10 by site-directed mutagenesis; also called His6-FdhD^C124A; source: E. coli ΔfdhD strain (plasmid pNB12), purified (Ni-NTA)) MKKTQRKEIENVTNITGVRQIELWRRDDLQHPRLDEVAEEVPVALVYNGISHVVMMASPKDLEYFALGFSLSEGIIESPRDIFGMDVVPSCNGLEVQIELSSRRFMGLKERRRALAGRTGCGVAGVEQLNDIGKPVQPLPFTQTFDLNKLDDALRHLNDFQPVGQLTGCTHAAAWMLPSGELVGGHEDVGRHVALDKLLGRRSQEGESWQQGAVLVSSRASYEMVQKSAMCGVEILFAVSAATTLAVEVAERCNLTLVGFCKPGRATVYTHPQRLSN",stoichiometry N,[5],2
"Escherichia coli FdhD-C121A (natural protein, E. coli, FdhD of Escherichia coli with C121A; fdhD^C121A gene in pTrcHis (pNB11); Made from pNB10 by site-directed mutagenesis; also called His6-FdhD^C121A; source: E. coli ΔfdhD strain (plasmid pNB11), purified (Ni-NTA)) MKKTQRKEIENVTNITGVRQIELWRRDDLQHPRLDEVAEEVPVALVYNGISHVVMMASPKDLEYFALGFSLSEGIIESPRDIFGMDVVPSCNGLEVQIELSSRRFMGLKERRRALAGRTGAGVCGVEQLNDIGKPVQPLPFTQTFDLNKLDDALRHLNDFQPVGQLTGCTHAAAWMLPSGELVGGHEDVGRHVALDKLLGRRSQEGESWQQGAVLVSSRASYEMVQKSAMCGVEILFAVSAATTLAVEVAERCNLTLVGFCKPGRATVYTHPQRLSN",stoichiometry N,[5],2
"Escherichia coli FdhD-C121A/C124A (natural protein, E. coli, FdhD of Escherichia coli with C121A and C124A; fdhD^C121A/C124A gene in pTrcHis (pNB13); Made from pNB10 by site-directed mutagenesis; also called FdhD-C121/C124A; double variant; source: E. coli ΔfdhD strain (plasmid pNB13), purified (Ni-NTA)) MKKTQRKEIENVTNITGVRQIELWRRDDLQHPRLDEVAEEVPVALVYNGISHVVMMASPKDLEYFALGFSLSEGIIESPRDIFGMDVVPSCNGLEVQIELSSRRFMGLKERRRALAGRTGAGVAGVEQLNDIGKPVQPLPFTQTFDLNKLDDALRHLNDFQPVGQLTGCTHAAAWMLPSGELVGGHEDVGRHVALDKLLGRRSQEGESWQQGAVLVSSRASYEMVQKSAMCGVEILFAVSAATTLAVEVAERCNLTLVGFCKPGRATVYTHPQRLSN",stoichiometry N,[5],2
same,binding result,[6],binds
